The results in this text go back to paper PMC11889175, “Molecular principles of redox-coupled sodium pumping of the ancient Rnf machinery” (Nature Communications, 2025).

Like-named read-outs stand apart in the source and are kept apart here.

Sequences and labels used below:
B1: RnfD subunit of the Rnf complex from Acetobacterium woodii (natural protein)
chain: MNELNLTVSSSPHIRAKHSTASIMQNVIIALLPALAVAGYVFGLWALALVAICVISSVATEAVIQKLLKKPITVNDWSAVVTGVLLAFNLPINAPWWIGVVGSVFAIAIVKQCFGGLGQNFINPALAARAFLLASWPGHMTSTAYIPLTDTVTTATPLALLKAGETGSMPSTLDLFTGLNGVYGCIGEISALALLIGGLYLIYKGIISWRIPTIYLLTIAIFALLVGQDPIVHMVSGGVMLGAFFMATDYASSPVTAKGQIIYAIGCGLITMIIRLYGGYPEGCSYSILLMNVATPLIERFTKERIYGVTKIKKEAKA
modifications: FMN covalently linked to T156
notes: RnfD, integral membrane subunit of the Rnf complex with ten transmembrane helices (riboflavin and covalent FMN), Acetobacterium woodii; rnf genes amplified from genomic DNA
B2: RnfE subunit of the Rnf complex from Acetobacterium woodii (natural protein)
chain: MNFMKNLTRGIIRENPTFVLVLGMCPTLAVTTSAINGMGMGLATMLVLIGSNVAISALRKVIPDNIRIPAFVVVIASFVTIVGMLMKAYVPALDAALGIFIPLIVVNCIILARAEAFAFSNGIADSFADAVGMGLGFTLALTILGSIREILGAGSIFGFSLFGAAYEPVLLMILPPGAFLTLGLLIGLINWKTKKA
notes: RnfE, integral membrane subunit of the Rnf complex, homologous to RnfA (29% identity), Acetobacterium woodii; rnf genes amplified from genomic DNA
B3: RnfG subunit of the Rnf complex from Acetobacterium woodii (natural protein)
chain: METKEKVQIDWKVVFKLGLILFVISAVAACALALTNYVTAGTIEEMNVQTNTVARQEVLPKAADFEAVPAKDVEKIASEIGMEKPEELLEVYIGKSNGEVVGYTVKTGPTSGYAGEVQVLTGISADGVITGITIIKSNETPGLGAKASGVWNDQFTGKSAKEELVVVKGTTKEGSNEIQAITGSTITSKAVTSGVNMSIQVYQNLSK
modifications: FMN covalently linked to T185
notes: RnfG, membrane-anchored periplasmic flavoprotein subunit of the Rnf complex, Acetobacterium woodii; rnf genes amplified from genomic DNA; The complex was captured on Ni-NTA by this tag; no cleavage step is described; not shown: His-Tag, C-terminal, kept
B4: RnfA subunit of the Rnf complex from Acetobacterium woodii (natural protein)
chain: MTLIFIMISAIFVNNFVLSRFLGICPFLGVSKQVETAVGMGVAVTFVMALASAITYVVQYAILDPLSLGYLQTIAFILIIAALVQLVEMIIKKSSPSLYQALGVYLPLITTNCAVLGVALINIQNEYNFIETIFNGVGAALGFTLAIVLFAGIRERLETSAVPKALEGFPIALLTAGLMAIAFLGFSGMKL
notes: RnfA, integral membrane subunit of the Na+-pumping Rnf complex, Acetobacterium woodii; rnf genes amplified from genomic DNA
B5: RnfB subunit of the Rnf complex from Acetobacterium woodii (natural protein)
chain: MLNAILVPVGILGVFGLIFGIGLAIAAKVFEVYEDPRVPLVRAALPGANCGGCGLPGCDALAANIVGGSAAIDACPVGGASCAAAVAEIMGMEAGSAVKKVATVICQGTCETAPNRAEYYGEMDCREAMIASGGSKGCRYGCLGYGTCKAVCPFDAIVIGEDGLPKVDPEKCTSCGKCVEACPKSIMTLVPEAQEVIVKCHNFDKGKIARLSCTTACIACGACVKACRFDAITVENNCAKIDYDKCRQCYECVDKCPMNCISGDVEYGKSTAYIIEENCIACGLCAKNCPVNAITGEIKKPPYVIDHDMCIGCGICFDKCRKSAIEMRPNKTK
notes: RnfB, membrane-anchored poly-ferredoxin subunit of the Rnf complex with eight [4Fe4S] clusters, Acetobacterium woodii; rnf genes amplified from genomic DNA; B8-domain is residues 30-100 of RnfB; also called poly-ferredoxin subunit RnfB

Assay [1] addresses T1, Rnf complex (NADH / FMN site in RnfC) (Acetobacterium woodii, UniProt H6LC32). The assay is described as follows: cryo-EM structure, […] Å. Format: binding. Details: whole six-subunit complex, His-tag at C-terminus of RnfG, plasmid-produced in A. woodii delta-rnf, DDM-solubilised, Ni-NTA and gel filtration, anoxic; with Na(+)-translocating ferredoxin:NAD(+) oxidoreductase complex subunit B; Na(+)-translocating ferredoxin:NAD(+) oxidoreductase complex subunit D; Na(+)-translocating ferredoxin:NAD(+) oxidoreductase complex subunit G; Na(+)-translocating ferredoxin:NAD(+) oxidoreductase complex subunit E; Na(+)-translocating ferredoxin:NAD(+) oxidoreductase complex subunit A. Particulars: 500 µM NADH, 10 min, anoxic; stacks on non-covalent FMN of RnfC.

Assay [2] addresses T1, Rnf complex (NADH / FMN site in RnfC). Particulars: 30 µM ferredoxin pre-reduced by CO and CODH/ACS; 20 mM Tris/HCl, 20 mM NaCl, pH 7.2, 30 °C.
Assay [3] has as its target Rnf complex (FMN^G site in RnfG) (Acetobacterium woodii, UniProt H6LC30). The note with it: covalent, linked to T185 of RnfG; 5 µM FMN in purification buffer.
Assay [4] deals with Rnf complex (riboflavin and FMN^D sites in RnfD) (Acetobacterium woodii, UniProt H6LC31).
Assay [5] deals with T2, RnfC subunit of the Rnf complex from Acetobacterium woodii (Acetobacterium woodii, UniProt H6LC32 1-443).
T2 construct: rnf genes amplified from genomic DNA
T2 sequence: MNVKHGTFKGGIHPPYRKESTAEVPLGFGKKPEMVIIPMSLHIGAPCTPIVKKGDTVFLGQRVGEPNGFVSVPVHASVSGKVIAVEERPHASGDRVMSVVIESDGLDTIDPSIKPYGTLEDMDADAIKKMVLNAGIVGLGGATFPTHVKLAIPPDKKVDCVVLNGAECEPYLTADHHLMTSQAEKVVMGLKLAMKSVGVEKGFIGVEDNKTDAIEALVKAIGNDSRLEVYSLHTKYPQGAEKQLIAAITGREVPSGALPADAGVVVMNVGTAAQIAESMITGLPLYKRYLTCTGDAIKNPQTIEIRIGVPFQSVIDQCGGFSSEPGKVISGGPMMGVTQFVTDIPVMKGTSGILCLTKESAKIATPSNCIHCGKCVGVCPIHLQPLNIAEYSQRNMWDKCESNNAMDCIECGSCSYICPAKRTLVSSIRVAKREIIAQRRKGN
Nature of the assay: cryo-EM structure; Rnf complex purified in DDM, grids prepared under strictly anoxic conditions; NADH-reduced (3.3 Å), Fd-reduced (2.8 Å; state with B8 closer to the membrane 2.9 Å) and apo (3.0 Å) states, all with the same overall organisation. The note with it: both partners purified.

In assay [6] the target is B3. Described as above. Particulars: both partners purified.
Assay [7] deals with B5. The assay is described as above. The note with it: both partners purified.
For assay [8], the target named is B1. The description is as above. Particulars: both partners purified.
Assay [9] addresses B2. Described as above. The note with it: both partners purified.

As for `NC(=O)C1=CN([C@@H]2O[C@H](COP(=O)(O)OP(=O)(O)OC[C@H]3O[C@@H](n4cnc5c(N)ncnc54)[C@H](O)[C@@H]3O)[C@@H](O)[C@H]2O)C=CC1` [NADH], the “cryo-EM structure, 3.3 Å” value in [1] is “we observed a well-resolved density for a bound NADH molecule”. On to `NC(=O)c1ccc[n+]([C@@H]2O[C@H](COP(=O)(O)OP(=O)(O)OC[C@H]3O[C@@H](n4cnc5c(N)ncnc54)[C@H](O)[C@@H]3O)[C@@H](O)[C@H]2O)c1` [NAD^+], for which the “ferredoxin:NAD oxidoreductase assay” value in assay [2] is on record as “catalysed the ferredoxin-dependent reduction of NAD^+”. For the molecule `Cc1cc2nc3c(=O)[nH]c(=O)nc-3n(C[C@H](O)[C@H](O)[C@H](O)COP(=O)(O)O)c2cc1C` [flavin mononucleotide], the “cryo-EM structure, 2.8-3.3 Å” value was “covalently binds FMN^G via T185^RnfG in its antiparallel βαβ-fold” in assay [3] and “RnfD contains an FMN^D cofactor covalently linked to T156^RnfD” in [4] (covalent, linked to T156 of RnfD, 5 µM FMN in purification buffer). Regarding `Cc1cc2nc3c(=O)[nH]c(=O)nc-3n(C[C@H](O)[C@H](O)[C@H](O)CO)c2cc1C` [riboflavin], in [4] (pocket of RnfD connected to cytoplasmic side, hydrogen bonds to D249 and N123 of RnfD), the “cryo-EM structure, 2.8-3.3 Å” value is on record as “RnfD binds the redox cofactor riboflavin (RBF)”.

In the case of B1, in assay [5], the binding result is on record as “binds”.

For B2, the binding result in assay [6] is reported as “binds”. B3: the binding result in assay [7] and in assay [8] was “binds” throughout. For the molecule B4, the binding result in [6] and in assay [9] was “binds” in each case. Regarding B5, in assay [5], the binding result is on record as “binds”.
